Data taken from patent US20240317873A1 (CITY OF HOPE, published 2024).
Like-named read-outs stand apart in the source and are kept apart here. One block for each binder: values may come before it.

How the values were obtained:
[1] = biological target: T1, HVEM recombinant protein (ELISA-based competition assay) (human, UniProt Q92956 39-202, limits assumed); test: ELISA-based competition assay with recombinant proteins: binding of biotin-labelled HVEM to recombinant LIGHT (the blocked ligand), antibody titrated
T1 construct: The internal control used a biotin-labeled human HVEM; also called recombinant protein of HVEM; biotin-labeled human HVEM
T1 sequence (looked up): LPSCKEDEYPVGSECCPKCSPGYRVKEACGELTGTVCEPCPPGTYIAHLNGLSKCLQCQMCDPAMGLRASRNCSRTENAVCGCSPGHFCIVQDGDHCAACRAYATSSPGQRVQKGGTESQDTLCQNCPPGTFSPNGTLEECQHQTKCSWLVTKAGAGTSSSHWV

[2] = biological target: T2, HVEM (SinoBio, monomeric) (human, UniProt Q92956 39-202); test: SPR, HVEM immobilised on CM5 chip, Fab as analyte, 25 C
T2 construct: Bought protein immobilised on a CM5 chip by EDC/NHS coupling; also called hHVEM; TNFRSF14
T2 sequence (looked up): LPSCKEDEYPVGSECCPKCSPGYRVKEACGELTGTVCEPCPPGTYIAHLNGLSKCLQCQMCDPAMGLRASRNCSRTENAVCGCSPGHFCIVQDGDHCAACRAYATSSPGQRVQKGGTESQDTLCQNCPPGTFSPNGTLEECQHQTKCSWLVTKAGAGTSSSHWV

[3] = biological target: T3, human HVEM on the surface of cells (MM.1S myeloma cells, patient myeloma cells, Jurkat cells overexpressing … (human, UniProt Q92956 39-283)); test: imaging mass cytometry, 166Er-conjugated antibody, bone marrow of a multiple myeloma patient
T3 construct: whole, on cells; also called CD270; TNFRSF14
T3 sequence (looked up): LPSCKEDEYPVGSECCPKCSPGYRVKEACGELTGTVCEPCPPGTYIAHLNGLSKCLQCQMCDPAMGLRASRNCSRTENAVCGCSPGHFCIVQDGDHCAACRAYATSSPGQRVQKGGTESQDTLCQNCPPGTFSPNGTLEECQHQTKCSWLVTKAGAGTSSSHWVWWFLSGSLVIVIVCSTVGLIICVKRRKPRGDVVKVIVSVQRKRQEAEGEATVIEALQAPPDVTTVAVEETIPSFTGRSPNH
Description: Mass cytometery was performed on bone marrow from a patient with multiple myeloma. […] HVEM-4, 5, 13, 17, and 22 were used for staining and the nucleus was counterterstained with Ir-191.

[4] = biological target: T2, HVEM (SinoBio, monomeric); test: SPR; the chip of this figure is not described, the only SPR set-up of the filing is HVEM (SinoBio, monomeric) on CM5
[5] = biological target: T2, HVEM (SinoBio, monomeric); test: as above; remark: listed apart in the source
[6] = biological target: T3, human HVEM on the surface of cells …; test: imaging mass cytometry, 166Er-conjugated antibody, mouse bone marrow engrafted with MM1.S cells
Description: Mass cytometry was performed on mice bone marrow tissues engrafted with MM1.S cells. […] HVEM-4, 5, 13, 17, and 22 were used for staining and the nucleus was counterterstained with Ir-191.

[7] = biological target: T2, HVEM (SinoBio, monomeric); test: SPR; the chip of this figure is not described, the only SPR set-up of the filing is HVEM (SinoBio, monomeric) on CM5; remark: listed apart in the source

B3: anti-HVEM antibody clone 22 (antibody, human IgG1, kappa, V domains shown)
VH: QVQLQQSGAELVRPGASVTLSCKTSGYTFIHYEIHWVKQSPVHGLEWIGAIDPETGGTADNQKFKDKVTLTADKSSNTAYMDLRSLTSEDSAVYYCTRGDWVFAYWGQGTLVTVSA
VL: DVVMTQTPLSLPVSLGDQASISCRSSQSPLHSNGNTYLDWYLQKPGQSPKLLIYKVSNRFSGVPDRFSGSGSGTDFTLKISRVEAEDLGIYFCSQTTHVPPTFGGGTKLEIKR
notes: also called HVEM22; HVEM-22
- binding result [3]: binds
- binding result [4]: binds

B4: anti-HVEM antibody clone 17 (antibody, human IgG1, kappa, V domains shown)
VH: QIQLVQSGPELKKPGEPVKISCRASGYTLTNFGMNWVKQAPGKGLKWMGWINTYTGEPTYADDFKGRFAFSLETSASTAYLQINNLKNEDTATYFCARSFYGNEHYWGQGTSVTVSS
VL: QIVLTQSPAIMSASPGEKVTLTCSASSSVSSSYLFWYQQKPGSSPKLWIYSTSNLASGVPARFSGHGSGTSYSLTISSMEAEDAASYFCHQWSSYPYTFGGGTKLEIKR
notes: also called HVEM17; HVEM-17
- binding result [5]: binds
- binding result [6]: binds

Now from value to binder:

- IC50 (read off the curve) [1]: ~0.02 µM
B1: mcHVEM13 IgG (clone 13) (antibody, V domains shown)
VH: QIQLVQSGPELKKPGETVKISCKASGYILTNYGMNWVKQAPGKGLKWMGWINTYTGEPTYADAFKGRFAFSLETSASTAYLQINNLKNEDTATYFCARGYGNHWYFDYWGQGTSVTVSS
VL: QIVLTQSPAILSASPGEKVTMTCSASSSVSYMHWYQRKSGTSPKRWIYDTSKLASGVPARFSGSGSGTSYSLTISSMEAEDAATYYCQQWTSDPLTFGAGTKLELKR
notes: Murine chimeric IgG; The constant region of the tested IgG is not spelled out; Metal-conjugated in mass cytometry; also called anti-HVEM13; aHVEM13

- Kd [2]: 0.0996 µM
- koff [2]: 0.138 s⁻¹
- kon [2]: 1.38e+06 M⁻¹ s⁻¹
B2: mcHVEM13 Fab (clone 13) (Fab, V domains shown)
VH: QIQLVQSGPELKKPGETVKISCKASGYILTNYGMNWVKQAPGKGLKWMGWINTYTGEPTYADAFKGRFAFSLETSASTAYLQINNLKNEDTATYFCARGYGNHWYFDYWGQGTSVTVSS
VL: QIVLTQSPAILSASPGEKVTMTCSASSSVSYMHWYQRKSGTSPKRWIYDTSKLASGVPARFSGSGSGTSYSLTISSMEAEDAATYYCQQWTSDPLTFGAGTKLELKR
notes: Murine chimeric Fab; also called new mcHVEM13 Fab; anti-hHVEM murine chimeric Fab clone 13

- binding result [7]: no binding (tested: 100 nM)
B5: HVEM 23Ab (antibody, human IgG1, kappa, V domains shown)
VH: QIQLVQSGPELKKPGETVKISCKASGYTFTNFGMNWVKQAPGKALKWVGWINTYTGEPTYADDFKGRFAFSLETSATTAYLQISNLKNEDTATYFCARSYYFVTSEDYWGQGTSVTVSS
VL: QIVLTQSPAIMSASPGERVTMTCTARSSVSSSYLHWYQQKPGSSPKLWIYSTSNLASGVPARFSGSGSGASYSLTNSSMEAEDAATYYCHQYHRSTWTFGGGTKLEIKR
notes: also called anti-HVEM antibody clone 23
